{"source": "paper PMC11100828", "molecular_target": "human Nup153^CTD (C-terminal domain, aa 896-1485), MBP and SNAP-tag fusion protein (human)", "assay": "negative-stain TEM, occupancy of NuPODs by capsids", "data": [{"substance": "HBV capsids assembled in vitro from wild type HBV core protein (HBc) (from UniProt P03146 1-183) (complex)", "values": [{"measurement": "percent of NuPODs occupied by at least one capsid", "value": 90, "unit": "%"}]}]}
